Measured values taken from patent US20250313605A1.
*1 amine or outer side, *2 acyl side, *3 side chain or, on linkers, in order; H or OH if unused. Where no end group is shown, it is not given here. Side-chain parts run from the residue outwards. [ ]: non-standard residue; d: D form. The star is where a group is joined. C20 diacid = O=C(O)CCCCCCCCCCCCCCCCCCC(=O)*; γGlu = O=C(O)[C@H](CCC(=O)[*:2])N[*:1]; αMeL = CC(C)C[C@](C)(N)C(=O)O; αMeK = C[C@](N)(CCCCN)C(=O)O; AEEA = NCCOCCOCC(=O)O; Aib = CC(C)(N)C(=O)O

T1: human GLP-1 receptor (human), P43220
T1 chain: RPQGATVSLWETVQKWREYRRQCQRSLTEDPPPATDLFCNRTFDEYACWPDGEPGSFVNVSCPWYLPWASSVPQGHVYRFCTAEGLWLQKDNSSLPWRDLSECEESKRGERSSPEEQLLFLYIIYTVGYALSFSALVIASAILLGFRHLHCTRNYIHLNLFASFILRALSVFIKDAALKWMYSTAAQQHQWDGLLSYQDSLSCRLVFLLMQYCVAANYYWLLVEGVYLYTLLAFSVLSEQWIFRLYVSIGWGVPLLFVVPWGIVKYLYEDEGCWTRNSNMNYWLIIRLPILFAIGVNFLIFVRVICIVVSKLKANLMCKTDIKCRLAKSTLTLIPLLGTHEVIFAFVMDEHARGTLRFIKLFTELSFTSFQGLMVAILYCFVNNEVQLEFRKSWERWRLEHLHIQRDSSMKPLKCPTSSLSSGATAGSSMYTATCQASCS

T2: human GIP receptor (human), P48546
T2 chain: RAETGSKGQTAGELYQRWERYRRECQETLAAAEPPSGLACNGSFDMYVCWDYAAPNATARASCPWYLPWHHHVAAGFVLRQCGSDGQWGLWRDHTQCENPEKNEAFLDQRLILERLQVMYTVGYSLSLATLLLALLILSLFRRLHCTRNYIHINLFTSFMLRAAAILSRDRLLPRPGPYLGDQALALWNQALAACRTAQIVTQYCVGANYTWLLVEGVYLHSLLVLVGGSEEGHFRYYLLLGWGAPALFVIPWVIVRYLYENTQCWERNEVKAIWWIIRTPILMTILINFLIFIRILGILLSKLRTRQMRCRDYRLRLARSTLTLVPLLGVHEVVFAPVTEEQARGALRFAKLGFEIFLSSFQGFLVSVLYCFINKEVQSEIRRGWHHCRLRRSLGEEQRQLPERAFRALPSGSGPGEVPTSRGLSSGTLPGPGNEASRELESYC

B1: Example 4 (peptide)
peptide: Y[Aib]QGTFTSDYSILLDKK([AEEA-γGlu-C20 diacid])AQ[Aib]AFIEYLLA[Aib]GPSSGAPPPS-NH2
modifications: N-terminus assumed
SMILES: CC[C@H](C)[C@H](NC(=O)[C@H](Cc1ccccc1)NC(=O)[C@H](C)NC(=O)C(C)(C)NC(=O)[C@H](CCC(N)=O)NC(=O)[C@H](C)NC(=O)[C@H](CCCCNC(=O)COCCOCCNC(=O)CC[C@H](NC(=O)CCCCCCCCCCCCCCCCCCC(=O)O)C(=O)O)NC(=O)[C@H](CCCCN)NC(=O)[C@H](CC(=O)O)NC(=O)[C@H](CC(C)C)NC(=O)[C@H](CC(C)C)NC(=O)[C@@H](NC(=O)[C@H](CO)NC(=O)[C@H](Cc1ccc(O)cc1)NC(=O)[C@H](CC(=O)O)NC(=O)[C@H](CO)NC(=O)[C@@H](NC(=O)[C@H](Cc1ccccc1)NC(=O)[C@@H](NC(=O)CNC(=O)[C@H](CCC(N)=O)NC(=O)C(C)(C)NC(=O)[C@@H](N)Cc1ccc(O)cc1)[C@@H](C)O)[C@@H](C)O)[C@@H](C)CC)C(=O)N[C@@H](CCC(=O)O)C(=O)N[C@@H](Cc1ccc(O)cc1)C(=O)N[C@@H](CC(C)C)C(=O)N[C@@H](CC(C)C)C(=O)N[C@@H](C)C(=O)NC(C)(C)C(=O)NCC(=O)N1CCC[C@H]1C(=O)N[C@@H](CO)C(=O)N[C@@H](CO)C(=O)NCC(=O)N[C@@H](C)C(=O)N1CCC[C@H]1C(=O)N1CCC[C@H]1C(=O)N1CCC[C@H]1C(=O)N[C@@H](CO)C(N)=O
B2: Example 5 (peptide)
peptide: Y[Aib]QGTFTSDYSI[αMeL]LDKK([AEEA-AEEA-γGlu-C20 diacid])AAQAFIEYLLE[Aib]GPSSGAPPPS-NH2
modifications: N-terminus assumed
SMILES: CC[C@H](C)[C@H](NC(=O)[C@H](Cc1ccccc1)NC(=O)[C@H](C)NC(=O)[C@H](CCC(N)=O)NC(=O)[C@H](C)NC(=O)[C@H](C)NC(=O)[C@H](CCCCNC(=O)COCCOCCNC(=O)COCCOCCNC(=O)CC[C@H](NC(=O)CCCCCCCCCCCCCCCCCCC(=O)O)C(=O)O)NC(=O)[C@H](CCCCN)NC(=O)[C@H](CC(=O)O)NC(=O)[C@H](CC(C)C)NC(=O)[C@](C)(CC(C)C)NC(=O)[C@@H](NC(=O)[C@H](CO)NC(=O)[C@H](Cc1ccc(O)cc1)NC(=O)[C@H](CC(=O)O)NC(=O)[C@H](CO)NC(=O)[C@@H](NC(=O)[C@H](Cc1ccccc1)NC(=O)[C@@H](NC(=O)CNC(=O)[C@H](CCC(N)=O)NC(=O)C(C)(C)NC(=O)[C@@H](N)Cc1ccc(O)cc1)[C@@H](C)O)[C@@H](C)O)[C@@H](C)CC)C(=O)N[C@@H](CCC(=O)O)C(=O)N[C@@H](Cc1ccc(O)cc1)C(=O)N[C@@H](CC(C)C)C(=O)N[C@@H](CC(C)C)C(=O)N[C@@H](CCC(=O)O)C(=O)NC(C)(C)C(=O)NCC(=O)N1CCC[C@H]1C(=O)N[C@@H](CO)C(=O)N[C@@H](CO)C(=O)NCC(=O)N[C@@H](C)C(=O)N1CCC[C@H]1C(=O)N1CCC[C@H]1C(=O)N1CCC[C@H]1C(=O)N[C@@H](CO)C(N)=O
B3: Example 8 (peptide)
peptide: Y[Aib]QGTFTSDYSILLDKK([AEEA-AEEA-γGlu-C20 diacid])AQ[αMeK]AFIEYLLEGGPSSGAPPPS-NH2
modifications: N-terminus assumed
SMILES: CC[C@H](C)[C@H](NC(=O)[C@H](Cc1ccccc1)NC(=O)[C@H](C)NC(=O)[C@](C)(CCCCN)NC(=O)[C@H](CCC(N)=O)NC(=O)[C@H](C)NC(=O)[C@H](CCCCNC(=O)COCCOCCNC(=O)COCCOCCNC(=O)CC[C@H](NC(=O)CCCCCCCCCCCCCCCCCCC(=O)O)C(=O)O)NC(=O)[C@H](CCCCN)NC(=O)[C@H](CC(=O)O)NC(=O)[C@H](CC(C)C)NC(=O)[C@H](CC(C)C)NC(=O)[C@@H](NC(=O)[C@H](CO)NC(=O)[C@H](Cc1ccc(O)cc1)NC(=O)[C@H](CC(=O)O)NC(=O)[C@H](CO)NC(=O)[C@@H](NC(=O)[C@H](Cc1ccccc1)NC(=O)[C@@H](NC(=O)CNC(=O)[C@H](CCC(N)=O)NC(=O)C(C)(C)NC(=O)[C@@H](N)Cc1ccc(O)cc1)[C@@H](C)O)[C@@H](C)O)[C@@H](C)CC)C(=O)N[C@@H](CCC(=O)O)C(=O)N[C@@H](Cc1ccc(O)cc1)C(=O)N[C@@H](CC(C)C)C(=O)N[C@@H](CC(C)C)C(=O)N[C@@H](CCC(=O)O)C(=O)NCC(=O)NCC(=O)N1CCC[C@H]1C(=O)N[C@@H](CO)C(=O)N[C@@H](CO)C(=O)NCC(=O)N[C@@H](C)C(=O)N1CCC[C@H]1C(=O)N1CCC[C@H]1C(=O)N1CCC[C@H]1C(=O)N[C@@H](CO)C(N)=O

Key:
[1] = target: human glucagon receptor (human), P47871; test: cell-based or functional assay
Sequence of human glucagon receptor (human), P47871 (P47871 26-477): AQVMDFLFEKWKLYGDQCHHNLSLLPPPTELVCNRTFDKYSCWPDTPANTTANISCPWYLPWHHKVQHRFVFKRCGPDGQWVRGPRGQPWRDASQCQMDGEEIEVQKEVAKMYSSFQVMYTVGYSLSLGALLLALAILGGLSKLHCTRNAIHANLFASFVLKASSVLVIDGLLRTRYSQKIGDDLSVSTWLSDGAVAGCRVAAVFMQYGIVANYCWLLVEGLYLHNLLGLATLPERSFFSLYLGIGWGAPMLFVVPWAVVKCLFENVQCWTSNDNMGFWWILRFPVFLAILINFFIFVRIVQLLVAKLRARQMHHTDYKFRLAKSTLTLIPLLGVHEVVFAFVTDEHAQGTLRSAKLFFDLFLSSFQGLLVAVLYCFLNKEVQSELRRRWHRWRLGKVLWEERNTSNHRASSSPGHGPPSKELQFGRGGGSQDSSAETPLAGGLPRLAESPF

[2] = target: T1, human GLP-1 receptor (human), P43220; test: cell-based or functional assay
[3] = target: T2, human GIP receptor (human), P48546; test: cell-based or functional assay
[4] = target: human glucagon receptor (human), P47871; test: radioligand competition SPA, HEK293 membranes
[5] = target: T1, human GLP-1 receptor (human), P43220; test: radioligand competition SPA, HEK293 membranes
[6] = target: T2, human GIP receptor (human), P48546; test: radioligand competition SPA, HEK293 membranes

Binder	cAMP EC50 (0.1% casein) [1] [nM]	cAMP EC50 (FBS and BSA present) [1] [nM]	cAMP EC50 (0.1% casein) [2] [nM]	cAMP EC50 (FBS and BSA present) [2] [nM]	cAMP EC50 (0.1% casein) [3] [nM]	cAMP EC50 (FBS and BSA present) [3] [nM]	Ki [4] [nM]	Ki [5] [nM]	Ki [6] [nM]
B1	0.0674	2.49	0.18	10.4	0.0648	1.55	2.55	3.54	0.0374
B2	0.0226	1.47	0.147	22.3	0.0757	4.86	0.422	36.7	0.179
Y[Aib]QGTFTSDYSI[αMeL]LDKK([AEEA-AEEA-γGlu-C20 diacid])AAQAFIEYLLEGGPSSGAPPPS-NH2 [Example 6]	0.0282	1.99	0.142	21.2	0.274	7.41	0.835	36.7	0.249
Y[Aib]QGTFTSDYSI[αMeL]LDKK([AEEA-AEEA-γGlu-C20 diacid])AQHAFIEYLLEGGPSSGAPPPS-NH2 [Example 7]	0.18	14.2	0.109	15.5	0.0798	4.38	16.3	21.4	0.11
B3	0.12	6.24	0.117	9.39	0.114	2.23	30.4	29.4	0.0958
